{"source": "patent US20110207670", "key": {"[1]": {"system": "human TMD2 (wild-type soluble human thrombomodulin truncated immediately after EGF6, without signal peptide)"}, "[2]": {"system": "human TMD1 (soluble thrombomodulin containing the amino terminal domain, EGF domain and ST domain, without signal peptide)"}, "[3]": {"system": "TM-LE15 (truncated form of TMD2 in which the EGF 6 domain is removed)", "sequence (chain, as listed by the source)": "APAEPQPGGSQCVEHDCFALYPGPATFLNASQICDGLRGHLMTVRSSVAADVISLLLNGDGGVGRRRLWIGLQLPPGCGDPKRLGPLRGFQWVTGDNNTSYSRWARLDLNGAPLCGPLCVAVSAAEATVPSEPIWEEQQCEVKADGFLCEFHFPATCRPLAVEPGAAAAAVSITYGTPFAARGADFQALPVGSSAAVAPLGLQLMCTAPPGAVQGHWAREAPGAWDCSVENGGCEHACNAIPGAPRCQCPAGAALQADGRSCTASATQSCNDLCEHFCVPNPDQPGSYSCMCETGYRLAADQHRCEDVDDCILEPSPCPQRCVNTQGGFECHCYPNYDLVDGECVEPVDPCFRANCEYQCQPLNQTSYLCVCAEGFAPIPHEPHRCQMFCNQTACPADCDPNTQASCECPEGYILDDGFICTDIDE"}, "[4]": {"system": "TMD2-I424A (TMD2 in which the isoleucine at position 424 is substituted with alanine)"}}}
{"substance": "human thrombin", "values": [{"measurement": "Vmax (mOD405/min) of human protein C activation", "setting": "[1]", "result": 39.1, "unit": "mOD405/min"}, {"measurement": "Vmax (mOD405/min) of human protein C activation", "setting": "[2]", "result": 43.3, "unit": "mOD405/min"}, {"measurement": "Vmax (mOD405/min) of human protein C activation", "setting": "[3]", "result": 8.3, "unit": "mOD405/min"}, {"measurement": "Vmax (mOD405/min) of human protein C activation", "setting": "[4]", "result": 6.9, "unit": "mOD405/min"}]}
